How the values were obtained:
purified protein [1] = substrate: N#Cc1cccnc1; assay: purified protein; conditions: 0.05 M potassium phosphate pH 6.5, 10 nM enzyme, 0.05-0.75 M substrate
purified protein [2] = substrate: N#Cc1cn([C@@H]2O[C@H](CO)[C@@H](O)[C@H]2O)c2ncnc(N)c12; assay: purified protein; conditions: 0.05 M potassium phosphate pH 6.5, 10 nM enzyme, 0.1-2.5 mM substrate

B1: ToyJKL (toyocamycin nitrile hydratase, TNHase) (Streptomyces rimosus) (protein)
chain 1: MSTEHVSLPIAARVRRLEERVIAAGLVTDEQLDTILEHNLSRATPFNGARLVARAWTSPDFRDLLLGEPAAALREMGLDGLLADDEHLRVVANTPTVHNVVVCTLCSCYPVLLLGPSPSWYKSDAYRARVVREPRAVLAEFGTVLPAEVDVRVWDASAEARYMVLPRRPAGTEGLDEEGLAARVTRAGLIGTAPV
chain 2: MGERRFSVGDPVRVRPADPPHHTRVPRYVRGHLGHVVTVQPPCPLPDDVARRRDPFRVLPVYTVRFAARDLWGSGTHLVLIDLWECYLEPAAETARGLGGETS
chain 3: MARLNDIGGTFGYGSIPMDGAEPPHPWRHDWEARVFAVLIGLAMAGVWTASELRDAEERVPPNDYLAASYYERVLMGMELLLDEKGIPSRG
Question: With B1 as the protein, how does the Km (purified protein [1]) read?
Answer: 99 ± 2 mM

Question: And the kcat (purified protein [1])?
Answer: 79 ± 5 s⁻¹

Question: And the kcat/Km (purified protein [1])?
Answer: 800 M⁻¹ s⁻¹

Question: And the Km (purified protein [2])?
Answer: 2.8 × 10^–2 ± 1 × 10^–3 mM

Question: And the kcat (purified protein [2])?
Answer: 159 ± 2 s⁻¹

Question: And the kcat/Km (purified protein [2])?
Answer: 5.7e+06 M⁻¹ s⁻¹

Source: publication PMC4075990
